Measurements taken from US11130793B2, “GLP-1/GLP-2 dual agonists” (Zealand Pharma A/S, priority 2016, dated 2021).
Square brackets hold non-standard residues; d marks the D form. Aib = CC(C)(N)C(=O)O

T1: human GLP-2 receptor (hGLP2-R) (human, UniProt O95838)
T1 sequence: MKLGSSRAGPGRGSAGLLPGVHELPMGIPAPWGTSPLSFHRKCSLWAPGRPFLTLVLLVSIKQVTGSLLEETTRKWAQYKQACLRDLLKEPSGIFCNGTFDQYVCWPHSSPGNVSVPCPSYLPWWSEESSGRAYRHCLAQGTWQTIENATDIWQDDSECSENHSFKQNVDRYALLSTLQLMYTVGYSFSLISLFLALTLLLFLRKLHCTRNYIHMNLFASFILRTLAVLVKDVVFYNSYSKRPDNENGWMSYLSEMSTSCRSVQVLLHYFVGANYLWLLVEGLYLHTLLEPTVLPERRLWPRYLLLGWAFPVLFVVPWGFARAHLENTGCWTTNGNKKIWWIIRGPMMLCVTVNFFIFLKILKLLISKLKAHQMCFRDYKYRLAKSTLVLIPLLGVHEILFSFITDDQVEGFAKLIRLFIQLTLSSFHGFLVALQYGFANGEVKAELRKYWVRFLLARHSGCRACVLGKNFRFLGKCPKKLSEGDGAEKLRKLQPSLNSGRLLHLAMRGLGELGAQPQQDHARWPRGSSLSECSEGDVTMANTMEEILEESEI

B1: Compound 5 (peptide)
peptide: H-H[Aib]EGTFTSELATILDEQAARDFIAWLIEHKITD-OH
SMILES: CC[C@H](C)[C@H](NC(=O)[C@H](Cc1ccccc1)NC(=O)[C@H](CC(=O)O)NC(=O)[C@H](CCCNC(=N)N)NC(=O)[C@H](C)NC(=O)[C@H](C)NC(=O)[C@H](CCC(N)=O)NC(=O)[C@H](CCC(=O)O)NC(=O)[C@H](CC(=O)O)NC(=O)[C@H](CC(C)C)NC(=O)[C@@H](NC(=O)[C@@H](NC(=O)[C@H](C)NC(=O)[C@H](CC(C)C)NC(=O)[C@H](CCC(=O)O)NC(=O)[C@H](CO)NC(=O)[C@@H](NC(=O)[C@H](Cc1ccccc1)NC(=O)[C@@H](NC(=O)CNC(=O)[C@H](CCC(=O)O)NC(=O)C(C)(C)NC(=O)[C@@H](N)Cc1c[nH]cn1)[C@@H](C)O)[C@@H](C)O)[C@@H](C)O)[C@@H](C)CC)C(=O)N[C@@H](C)C(=O)N[C@@H](Cc1c[nH]c2ccccc12)C(=O)N[C@@H](CC(C)C)C(=O)N[C@H](C(=O)N[C@@H](CCC(=O)O)C(=O)N[C@@H](Cc1c[nH]cn1)C(=O)N[C@@H](CCCCN)C(=O)N[C@H](C(=O)N[C@H](C(=O)N[C@@H](CC(=O)O)C(=O)O)[C@@H](C)O)[C@@H](C)CC)[C@@H](C)CC
B2: Compound 6 (peptide)
peptide: H-H[Aib]EGSFTSELATILDEQAARDFIAWLIHHKITD-OH
SMILES: CC[C@H](C)[C@H](NC(=O)[C@H](Cc1ccccc1)NC(=O)[C@H](CC(=O)O)NC(=O)[C@H](CCCNC(=N)N)NC(=O)[C@H](C)NC(=O)[C@H](C)NC(=O)[C@H](CCC(N)=O)NC(=O)[C@H](CCC(=O)O)NC(=O)[C@H](CC(=O)O)NC(=O)[C@H](CC(C)C)NC(=O)[C@@H](NC(=O)[C@@H](NC(=O)[C@H](C)NC(=O)[C@H](CC(C)C)NC(=O)[C@H](CCC(=O)O)NC(=O)[C@H](CO)NC(=O)[C@@H](NC(=O)[C@H](Cc1ccccc1)NC(=O)[C@H](CO)NC(=O)CNC(=O)[C@H](CCC(=O)O)NC(=O)C(C)(C)NC(=O)[C@@H](N)Cc1c[nH]cn1)[C@@H](C)O)[C@@H](C)O)[C@@H](C)CC)C(=O)N[C@@H](C)C(=O)N[C@@H](Cc1c[nH]c2ccccc12)C(=O)N[C@@H](CC(C)C)C(=O)N[C@H](C(=O)N[C@@H](Cc1c[nH]cn1)C(=O)N[C@@H](Cc1c[nH]cn1)C(=O)N[C@@H](CCCCN)C(=O)N[C@H](C(=O)N[C@H](C(=O)N[C@@H](CC(=O)O)C(=O)O)[C@@H](C)O)[C@@H](C)CC)[C@@H](C)CC
B3: Compound 4 (peptide)
peptide: H-H[Aib]EGSFTSELATILDEQAARDFIAWLIEHKITD-OH
SMILES: CC[C@H](C)[C@H](NC(=O)[C@H](Cc1ccccc1)NC(=O)[C@H](CC(=O)O)NC(=O)[C@H](CCCNC(=N)N)NC(=O)[C@H](C)NC(=O)[C@H](C)NC(=O)[C@H](CCC(N)=O)NC(=O)[C@H](CCC(=O)O)NC(=O)[C@H](CC(=O)O)NC(=O)[C@H](CC(C)C)NC(=O)[C@@H](NC(=O)[C@@H](NC(=O)[C@H](C)NC(=O)[C@H](CC(C)C)NC(=O)[C@H](CCC(=O)O)NC(=O)[C@H](CO)NC(=O)[C@@H](NC(=O)[C@H](Cc1ccccc1)NC(=O)[C@H](CO)NC(=O)CNC(=O)[C@H](CCC(=O)O)NC(=O)C(C)(C)NC(=O)[C@@H](N)Cc1c[nH]cn1)[C@@H](C)O)[C@@H](C)O)[C@@H](C)CC)C(=O)N[C@@H](C)C(=O)N[C@@H](Cc1c[nH]c2ccccc12)C(=O)N[C@@H](CC(C)C)C(=O)N[C@H](C(=O)N[C@@H](CCC(=O)O)C(=O)N[C@@H](Cc1c[nH]cn1)C(=O)N[C@@H](CCCCN)C(=O)N[C@H](C(=O)N[C@H](C(=O)N[C@@H](CC(=O)O)C(=O)O)[C@@H](C)O)[C@@H](C)CC)[C@@H](C)CC
B4: Compound 7 (peptide)
peptide: H-H[Aib]EGSFTSELATILDEQAARDFIAWLIYHKITD-OH
SMILES: CC[C@H](C)[C@H](NC(=O)[C@H](Cc1ccccc1)NC(=O)[C@H](CC(=O)O)NC(=O)[C@H](CCCNC(=N)N)NC(=O)[C@H](C)NC(=O)[C@H](C)NC(=O)[C@H](CCC(N)=O)NC(=O)[C@H](CCC(=O)O)NC(=O)[C@H](CC(=O)O)NC(=O)[C@H](CC(C)C)NC(=O)[C@@H](NC(=O)[C@@H](NC(=O)[C@H](C)NC(=O)[C@H](CC(C)C)NC(=O)[C@H](CCC(=O)O)NC(=O)[C@H](CO)NC(=O)[C@@H](NC(=O)[C@H](Cc1ccccc1)NC(=O)[C@H](CO)NC(=O)CNC(=O)[C@H](CCC(=O)O)NC(=O)C(C)(C)NC(=O)[C@@H](N)Cc1c[nH]cn1)[C@@H](C)O)[C@@H](C)O)[C@@H](C)CC)C(=O)N[C@@H](C)C(=O)N[C@@H](Cc1c[nH]c2ccccc12)C(=O)N[C@@H](CC(C)C)C(=O)N[C@H](C(=O)N[C@@H](Cc1ccc(O)cc1)C(=O)N[C@@H](Cc1c[nH]cn1)C(=O)N[C@@H](CCCCN)C(=O)N[C@H](C(=O)N[C@H](C(=O)N[C@@H](CC(=O)O)C(=O)O)[C@@H](C)O)[C@@H](C)CC)[C@@H](C)CC
B5: Compound 3 (peptide)
peptide: H-H[Aib]EGTFTSELATILDEQAARDFIAWLIAHKITD-OH
SMILES: CC[C@H](C)[C@H](NC(=O)[C@H](CC(C)C)NC(=O)[C@H](Cc1c[nH]c2ccccc12)NC(=O)[C@H](C)NC(=O)[C@@H](NC(=O)[C@H](Cc1ccccc1)NC(=O)[C@H](CC(=O)O)NC(=O)[C@H](CCCNC(=N)N)NC(=O)[C@H](C)NC(=O)[C@H](C)NC(=O)[C@H](CCC(N)=O)NC(=O)[C@H](CCC(=O)O)NC(=O)[C@H](CC(=O)O)NC(=O)[C@H](CC(C)C)NC(=O)[C@@H](NC(=O)[C@@H](NC(=O)[C@H](C)NC(=O)[C@H](CC(C)C)NC(=O)[C@H](CCC(=O)O)NC(=O)[C@H](CO)NC(=O)[C@@H](NC(=O)[C@H](Cc1ccccc1)NC(=O)[C@@H](NC(=O)CNC(=O)[C@H](CCC(=O)O)NC(=O)C(C)(C)NC(=O)[C@@H](N)Cc1c[nH]cn1)[C@@H](C)O)[C@@H](C)O)[C@@H](C)O)[C@@H](C)CC)[C@@H](C)CC)C(=O)N[C@@H](C)C(=O)N[C@@H](Cc1c[nH]cn1)C(=O)N[C@@H](CCCCN)C(=O)N[C@H](C(=O)N[C@H](C(=O)N[C@@H](CC(=O)O)C(=O)O)[C@@H](C)O)[C@@H](C)CC
B6: Teduglutide ([Gly2]-hGLP-2 (1-33)) (peptide)
peptide: HGDGSFSDEMNTILDNLAARDFINWLIQTKITD

What was measured:
[1] = target: human glucagon-like peptide 1 receptor (GLP-1R) (human, UniProt P43220); test: cell-based or functional assay
[2] = target: T1, human GLP-2 receptor (hGLP2-R); test: cell-based or functional assay

Binder | EC50 GLP-1 (nM); cAMP AlphaScreen [1] | EC50 GLP-2 (nM); cAMP AlphaScreen [2]
B1 | 0.0098 nM | 0.067 nM
B2 | 0.014 nM | 0.047 nM
B3 | 0.015 nM | 0.044 nM
B4 | 0.017 nM | 0.11 nM
B5 | 0.0074 nM | 0.036 nM
B6 | 39 nM | 
